Experimental data as given in a protein production outcome set (Wang et al. 2014).

Assay: label from the status in PepcDB records

Sequence | protein production
MSFYVVVGAGPVGRETARLLGEEGHDVVLTSRSVGSNALPNVRTVQADATDASELSRICRGADAIFMCAMAAYHRWPTDFFPIIDGTVRAAEAVGAKLIVLGNLYGYGENADSPLRSDLPLDPTSRKGTARTIMWQRAVRAGIPAIEIRSSDYLGHGAISYFSLIALPAIIEGKPTAFIGDLDATHAWAFTKDVARTLVAAALYKGEWGRAFHVPSQYASPRELIQKAAAMLGQEVSGTLSYSVPEIEALGMHEAIEMSYLFEKPLLVDASDTEALLGVKASSLEEMIADTLRDHL | failed
QKKDTSNHFHVFVGDLSPEITTEDIKAAFAPFGRISDARVVKDMATGKSKGYGFVSFFNKWDAENAIQQMGGQWLGGRQIRTNWATRKPPAPKSTYESNTKQ | not failed
MSRNPEVLWAQRSDKVYLTVALPDAKDISVKCEPQGLFSFSALGAQGERFEFSLELYGKIMTEYRKNVGLRNIIFSIQKEERSWWTRLLKSEEKPAPYIKVDWNKWCDEDEEVNSETASDDESAFVNQDSESSDDDGLLYLPDLEKARNK | not failed
MSSSIEIFPDSDILVAAAGKRLVGAIGAAVAARGQALIVLTGGGNGIALLRYLSAQAQQIEWSKVHLFWGDERYVPEDDDERNLKQARRALLNHVDIPSNQVHPMAASDGDFGGDLDAAALAYEQVLAASAAPGDPAPNFDVHLLGMGPEGHINSLFPHSPAVLESTRMVVAVDDSPKPPPRRITLTLPAIQRSREVWLLVSGPGKADAVAAAIGGADPVSVPAAGAVGRQNTLWLLDRDAAAKLPS | not failed
MSLGRTDAIALAYPSRPRVLNNSTFLEMISWIGIELGKRGLDLLLIPDEPGEKYQSLIHLVETRRVDALIVAHTQPEDFRLQYLQKQNFPFLALGRSHLPKPYAWFDFDNHAGASLAVKRLLELGHQRIAFVSTDARISYVDQRLQGYVQTMSEAGLMPLAGYLQKADPTRPGGYLAASRLLALEVPPTAIITDCNMLGDGVASALDKAGLLGGEGISLIAYDGLPDDSLLDIAVTPIVQNTRTSVGKQIASMICDLLGGKDPKELQVLWQPEIGEGETDGVNRRGEGHHHHHH | not failed
AAGAVRTDPVIHLHGSRSEDEPTTVLVHAGTATIMPYRALITEIRRRSPGLAEVVGVEVPDLSGFLAAPPDGLIERMAADYARALTADGRHRFHVVGYCLGGLIATEVARNLAESGAEVESLTVISSHSPRFRLDDELLAEYSFAVMMGIDPADLGFPDDQYRVAAAADTVLAASPGVLPDGGLAALGGEFEDVASRFRRLADVPRATRIARMCEAVPASAGTYEPDHMTRLFLAFRQSVFAITRYRAEPYAGDITFLRHDGAYPFPGSKDAVTAYWEELTLGDLDIVDIGGDHYSCLSVEHAPGILKTLGELTQGAITR | failed
MTNFKDNDGDGTKLHVVMFPWLAFGHMVPYLELSKLIAQKGHKVSFISTPRNIDRLLPWLPENLSSVINFVKLSLPVGDNKLPEDGEATTDVPFELIPYLKIAYDGLKVPVTEFLESSKPDWVLQDFAGFWLPPISRRLGIKTGFFSAFNGATLGILKPPGFEEYRTSPADFMKPPKWVPFETSVAFKLFECRFIFKGFMAETTEGNVPDIHRVGGVIDGCDVIFVRSCYEYEAEWLGLTQELHRKPVIPVGVLPPKPDEKFEDTDTWLSVKKWLDSRKSKSIVYVAFGSEAKPSQTELNEIALGLELSGLPFFWVLKTRRGPWDTEPVELPEGFEERTADRGMVWRGWVEQLRTLSHDSIGLVLTHPGWGTIIEAIRFAKPMAMLVFVYDQGLNARVIEEKKIGYMIPRDETEGFFTKESVANSLRLVMVEEEGKVYRENVKEMKGVFGDMDRQDRYVDSFLEYLVTNR | failed
MVVSTDQAHSLGDVLGIAVPPTGQGDPVRVLAYDPEAGGGFLDALALDTLALLEGRWLHVVETLDRRFPGSELSSIAPEELCALPGIQEVLGLHAVGELAAARRWDRIVVDCASTADALRMLTLPATFGLYVERAWPRHRRLSIGADDGRSAVLAELLERIRASVERLSTLLTDGALVSAHLVLTPERVVAAEAVRTLGSLALMGVRVEELLVNQLLVQDENYEYRSLPDHPAFHWYAERIGEQRAVLDDLDATIGDVALVLVPHLAGEPIGPKALGGLLDSARRRQGSAPPGPLQPIVDLESGSGLASIYRLRLALPQLDPGTLTLGRADDDLIVSAGGMRRRVRLASVLRRCTVLDAHLRGGELTVRFRPNPEVWPT | failed
GYTPQQLDSMVRKQDWMFLLSDRVKRSAMSLNEREKSEKYVFSFPFTKSPKDAVSGGIIKGQNLANLFTELTVGYHDSVDFNKLPIPFACVSQNIVNGEQIVFHNGILATAMRASMAIPGVFTPVRKDSMILIDGGMINNYPVDVARSMGADIIIGVDVQNNLKGID | failed
MSLSKVFTIGEILVEIMASKIGQPFDQPGIWNGPYPSGAPAIFIDQVTRLGVPCGIISCVGNDGFGDINIHRLAADGVDIRGISVLPLEATGSAFVTYHNSGDRDFIFNIKNAACGKLSAQHVDENILKDCTHFHIMGSSLFSFHMVDAVKKAVTIVKANGGVISFDPNIRKEMLDIPEMRDALHFVLELTDIYMPSEGEVLLLSPHSTPERAIAGFLEEGVKEVIVKRGNQGASYYSANEQFHVESYPVEEVDPTGAGDCFGGAWIACRQLGFDAHRALQYANACGALAVTRRGPMEGTSRLMEIETFIQRHDMSIREAAQEGHHHHHH | not failed
MSLSPDLLLAFALFALVTSITPGPNNTMLLASGVNFGFNRSIPHILGISCGFFVLVLAVGLGLGAVFEAYPLLYSVLRYVGAVYLLYLAWKIARSGPLSDEQQHHGRPLGYWGAAAFQWVNPKAWVMAVGAISTYTPLQGYFTNVLVIAAVFALINAPTVSLWAACGSLLRNVLRNPRWLRLFNLLMAALLVLSLAPLLFEKMS | failed
ACEQNEDWVVNEPMQSFEENPEYAPLNTIPDWVSEKVTPKEYELWRTMSSRYEINYSFLKKDISEKRKKEIYDCINNICERIEKGQINKYEGFLNIADEDGTTLSDSQYFGRIATRSPEGGAEYKTNGCTLYTHSLGPYIKAAVTYKKSDDDVTITSSSVYTGSPYLGNDPSFSGASSVSYDKDKKLIAASCSGTLSFKDGSRKVEVTVQKTGFMIP | not failed
MVPSGVRTGRWVAAARAAQRRPRVDSLGQPPSPESASTRAALYVHWPYCEKRCSYCNFNKYIPRGVEEGTVRNCLVTEARTLLRLSGVQRVESVFFGGGTPSLASPHTVAAVLEAVAQEVYLPADSEVTLEANPTSAPGPRLAAFGAAGVNRLSIGLQSLDDAELQLLGRTHSASDALRTLAEARLLFPGRVSVDLMLGLPAQKVEPWLQQLQKLLYHCDDHLSLYQLTLERGTSLFAQVQQGTLPAPDPDLAAEMYQEGRTVLRDAGFRQYEVSNFARNGALSTHNWTYWQCGQYLGIGPGAHGRFVPQGTGGHTREARIQTLEPDNWMKEVTLFGHGTRKCVRLGKLELLEEVLAMGLRTDVGVTHQHWQQFEPQLTLWDVFGASKEVEELLAQGLLLLDYRGLRCSWEGLAVLDSLLLTLLPQLQEAWQHRPSSPVSGG | failed
PEDSARVWQAFSRTLQTGEHVEIDYRYLDPGADDWIHLHVAWRGVRGSSPDTYDVIGITQNVTELVAARDAALAAAETKSQFLANMSHEIRTPMNGVLGVLHLLKTEK | failed
MTRYLALDAFRGITIALMILVNTPGTWSHVYAPLLHAEWDGATPTDLVFPFFLFIIGSAMFFSFKKSNFSASPEQFRKIIKRGFIMFFIGFMLNVIPFTVNAEDWRIMGILQRIGIAYTVAACLVLTLNRTGVFIASAVILLAYWALLLSMGEGALTIEGNIIRQLDLAVFGANHMYTMRGVAFEPEGLLSTIPAIVNMLLGFELTRYLTSIEDKRSSVIKLTLIGGLAVGFGALWGLVLPINKSLWTPSYVIYSTGFACLLLAAFIWLIDIMKQVKLAEPLLVYGTNPLFVYVLSFLVVTMYLNINVGDVSMYAWLYKQLSGVFTPKLASFIFAFSHVAFFWYVSLKLYQRKIFIKI | failed
MTYLVTGATGGLGGYALNYLKELVPMTDIYALVRSEEKGADLKAAGFNIRIGDYSDAESMKQAFAGIDRVLFVSGAPGNRQVEHENVVNTAKEAGVSYIAYTSFADADNSTSALAADHIFTEKVIEKSGIEHTFLRNNWYFENEMPMIGGALNGGKFVYAAGNGKTGWALKREYAEVAAKAVAGARFPEILELSGPVMTYAELTEALKEATGKDFEVISSDDKGFVENLVNVGMPQPVAEMFLSFQHDIKNNQLDVTSGDFEKALGKPLTNRVDALRELLQ | failed
MARIIRRPLNLTAAVRFRLSPLSPFSGNSGSINSETTSWSELIRVPSLVEGCDYKHWLVLMKPPNGYPTRNHIVQSFVETLAMALGSEEEAKRSIYSVSTKYYYAFGCRIHEPLTYKIRSLPDVKWVLPDSFIVDGDNRYGGEPFVDGEVVPYDEKYHADWLRDQTDEDAKSGVVKKKHRRKRKKKLI | failed
MVRPYGIKVNKRKEREERYDKEEDEVEEQPKFEQKQKARESSKKAKKESTSRAEEDNDEEEVTVEATAAAEDIVGGIPIVLNAPNKEKSGIVFVLEKASLEVAKVGKTYQLLNSDDHANFLKKNNRNPADYRPDITHQALLMILDSPVNKAGRLKAVYVRTEKGVLFEVKPHVRIPRTFKRFAGIMLQLLQKLSITAVNSREKLLRCVKNPIEEHHLPVNSHRIGFSHSSEKLVNMQKHLATVCDDDRDTVFVVGAMAHGKIDCNYIDEFVSVSEYPLSAAYCISRICEALATNWNII | failed
MSVIKLKSKLKYCHYAYDDEGYVIHMLTSNERTFFTNAYIIETKNSIVVVDTLMVNSDAILLRQYMDNINKPLIAVIITHGHPDHYNGTEIITGFKEVPIISTKGIRDCIQDTVDSKEVKWKPYFGQDWPEHKILPNQLVIDSEVVNLDGLDYSFRDLGAAESSSDLFFTLGEKRSVIFVGDVVFNNMHGFMNDGNSAQWLKVLQKLLTEIADVKLLFTGHGDPGDTHQLVQRQIDYISHYRSNLLAIIRGNQLLNDTQKQSFEQLMMANYPEFQLSSFIKAGIDAVSQELIVEQNDKP | failed
MLDKGGGRGKLSSPERFREWTRKTMAKQDELVFVPLGGVGEIGMNLALYGYGPESKRQWIMVDCGVTFAGPDLPGVDLVLPDISYIAEQKKNLKGIIITHAHEDHYGAMNDLWPGLNVPVYASPFTAGMLEAKRAYEGTRAEIPVTIFKAGDRINVGPFEIEAVGVNHSIPEPMSLIIRTPLGNVIHTGDWKIDEAPSLGPLTDEARFRAIGEEGVLALMCDSTNALRDGVSPSEHEVSEGLRQIIESAEGRVAVTTFSSNVGRIRSIAQAAEAAGREVLLLGSSLKRVVNVSQDLGIMEGIKPFLAEDEYGYIPRDRVVVILTGSQGEPRAALAKLSRDEMRNVALASGDTVVFSSRAIPGNEKAIIEIKNGLIEQGVHIVTDNEALVHVSGHPRRNELLRMYEWTKPQILVPVHGEAAHLVAQKELAEQAGISQVPKVRNGNVLRLAPGPAEVINDVPHGRVFKDGNLVGDMDEMGISNRRKLSFAGHVAVNVVLDSRYDFLGDPDVVPFGLPEFDDEDEAMEDTLYDAVLGAVESIPRARRKDLALLRESVRRAVRAAANQSWGKKPIVTVFVTKV | failed
MNSTISFLYQPKVQNGSIISVEALLRVPGVTNIESYVSMVTNKPLFDYTIIRKVLSDRREYHENIGYSFPVSINISIQSLESDYFINKTSKLLKNEPNVTLEITENDSYLSLERVKESMGILKSLGVKFSLDDFGKGFSDIEQVLSLDLDEIKVDGSLVNDIENNFYKFRHLKYTLDELEDISNFNIVIERVENKKQVNLIESLGKKVSYQGYFFYKPMNLFDLTIATPEPHKEEKHEPKLLLEKLIYELIKTDNDNECAQLVNDIHSVDIFNNLGSKVCDSLTITEVKKSILKKYNKIALNPNSPENLFFKSYLNCMSRLVIIRDSEGNALFNNQAHINFMNVDLVGMPLESIYEKFEQYESCIAIDKELIESKSNFLAVREVVDFDGQTKSYYTFRQKINHYGKTLIITIVYDEDDRDSFPRDALTDCFDRTILNSYYMNQFNMVAFIDMDGFKKINDNFSHKLGDDCLSKFVMYLKHELRKEDLIIRYGGDEFLIFTQWDDRHTFESRLNLIRNKVEKLFKSNNIDLSFSYGIEDLSKGMEIAINCADEKMYADKSRKLQ | failed
